Experimental data: patent US20050282739A1 (PALATIN TECHNOLOGIES, published 2005)
Where two headings read alike, the source gives them in different places. Square brackets hold non-standard residues; d marks the D form. Ends that are not written are not given here. Nle = CCCC[C@H](N)C(=O)O

What was measured:
[1] = biological target: T1, human melanocortin-5 receptor (hMC5-R) (human, UniProt P33032 1-325); test: 125I-NDP-α-MSH competition, hMC5-R membranes
T1 construct: whole, on cells; membranes prepared from hMC5-R cells were used; also called Melanocortin Receptor 5
T1 sequence (P33032 whole entry): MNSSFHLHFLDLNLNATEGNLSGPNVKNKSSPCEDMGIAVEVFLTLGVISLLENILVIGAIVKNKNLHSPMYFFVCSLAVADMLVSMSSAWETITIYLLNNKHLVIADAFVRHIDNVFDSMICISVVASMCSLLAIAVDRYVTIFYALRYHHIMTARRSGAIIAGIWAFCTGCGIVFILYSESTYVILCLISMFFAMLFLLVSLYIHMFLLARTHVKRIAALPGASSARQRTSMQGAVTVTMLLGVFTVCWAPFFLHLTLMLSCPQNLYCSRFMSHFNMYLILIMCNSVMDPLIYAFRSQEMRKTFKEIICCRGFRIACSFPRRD
Description: (§1) The competitive inhibition binding assay was conducted using membranes prepared from hMC3-R, hMC4-R, hMC5-R, and B-16 mouse melanoma cells (containing MC1-R) using 0.4 nM ¹²⁵I-NDP-alpha-MSH (New England Nuclear, Boston, Mass., USA) in 50 mM HEPES buffer containing 1 mM MgCl₂, 2 mM CaCl₂, and 5 mM KCl, at pH 7.2. […] Incubation was for 90 minutes at room temperature, after which the assay mixture was filtered and the membranes washed three times with ice cold buffer. The filter was dried and counted in a gamma counter for remaining radioactivity bound to the membranes. 100% specific binding was defined as the difference in radioactivity (cpm) bound to cell membranes in the absence and presence of 1 μM α-MSH. […] Each assay was conducted in triplicate and the actual mean valves are described.
(§2) The first unnumbered peptide in Table 3 is the parent polypeptide, which is a Nle³, D-Phe⁶ substituted γ-MSH analog specific for melanocortin receptors. The methods and assays set forth in Example 1 were followed.

[2] = biological target: T2, melanocortin-1 receptor (MC1-R) of B-16 mouse melanoma cells (mouse, UniProt Q01727 1-315); test: 125I-NDP-α-MSH competition, B-16 membranes
T2 construct: whole, on cells; membranes prepared from the cells were used; also called Melanocortin Receptor 1
T2 sequence (Q01727 whole entry): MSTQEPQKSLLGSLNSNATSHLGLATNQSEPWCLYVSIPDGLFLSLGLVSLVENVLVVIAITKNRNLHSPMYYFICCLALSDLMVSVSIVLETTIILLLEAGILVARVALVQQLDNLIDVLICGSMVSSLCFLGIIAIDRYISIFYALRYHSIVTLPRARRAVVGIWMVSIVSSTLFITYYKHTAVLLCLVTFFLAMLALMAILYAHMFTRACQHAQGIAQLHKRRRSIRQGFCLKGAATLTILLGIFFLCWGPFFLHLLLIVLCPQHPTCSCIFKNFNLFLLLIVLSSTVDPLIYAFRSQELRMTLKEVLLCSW
Description: as §1, §2

[3] = biological target: T3, human melanocortin-3 receptor (hMC3-R) (human, UniProt P41968 1-323); test: 125I-NDP-α-MSH competition, hMC3-R membranes
T3 construct: whole, on cells; membranes prepared from hMC3-R cells were used; also called Melanocortin Receptor 3
T3 sequence (P41968 whole entry): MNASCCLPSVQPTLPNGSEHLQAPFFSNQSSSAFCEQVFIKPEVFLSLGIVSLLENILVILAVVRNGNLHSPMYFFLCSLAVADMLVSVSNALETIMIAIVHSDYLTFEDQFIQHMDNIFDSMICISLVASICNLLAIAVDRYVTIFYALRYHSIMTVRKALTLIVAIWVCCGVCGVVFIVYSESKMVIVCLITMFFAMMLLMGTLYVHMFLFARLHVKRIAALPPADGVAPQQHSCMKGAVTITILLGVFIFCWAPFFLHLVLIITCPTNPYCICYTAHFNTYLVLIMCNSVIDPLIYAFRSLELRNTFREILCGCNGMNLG
Description: as §1, §2

[4] = biological target: T4, human melanocortin-4 receptor (hMC4-R) (human, UniProt P32245 1-332); test: 125I-NDP-α-MSH competition, hMC4-R membranes
T4 construct: whole, on cells; membranes prepared from hMC4-R cells were used; also called Melanocortin Receptor 4
T4 sequence (P32245 whole entry): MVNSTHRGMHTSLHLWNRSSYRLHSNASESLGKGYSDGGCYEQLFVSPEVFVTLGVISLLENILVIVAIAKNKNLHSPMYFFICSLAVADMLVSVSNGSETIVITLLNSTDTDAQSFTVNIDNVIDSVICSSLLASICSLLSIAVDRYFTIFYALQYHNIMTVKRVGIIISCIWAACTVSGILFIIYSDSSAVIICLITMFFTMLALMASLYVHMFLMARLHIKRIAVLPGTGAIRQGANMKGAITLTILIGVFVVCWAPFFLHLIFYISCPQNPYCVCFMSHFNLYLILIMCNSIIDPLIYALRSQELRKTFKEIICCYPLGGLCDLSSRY
Description: as §1, §2

[5] = biological target: T2, melanocortin-1 receptor (MC1-R) of B-16 …; test: 125I-NDP-α-MSH competition, B-16 membranes; remark: listed apart in the source
Description: as §1
(§3) The first unnumbered peptide in Table 5 is the parent polypeptide, which is a γ-MSH analog specific for melanocortin receptors. The methods and assays set forth in Example 1 were followed.

[6] = biological target: T4, human melanocortin-4 receptor (hMC4-R); test: 125I-NDP-α-MSH competition, hMC4-R membranes; remark: listed apart in the source
Description: as §1, §3

[7] = biological target: T3, human melanocortin-3 receptor (hMC3-R); test: 125I-NDP-α-MSH competition, hMC3-R membranes; remark: listed apart in the source
Description: as §1, §3

[8] = biological target: T1, human melanocortin-5 receptor (hMC5-R); test: 125I-NDP-α-MSH competition, hMC5-R membranes; remark: listed apart in the source
Description: as §1, §3

B1: metallopeptide 3-11 (peptide)
peptide: YVC[Nle]GH[dF]RWDRF-NH2
modifications: bridge (positions not given here); not fully specified (bridges); printed as Tyr-Val-Cys-Nle-Gly-His-D-Phe-Arg-Trp-Asp-Arg-Phe-NH2.; also: oxorhenium(V) N3S1 complex
B1 was tested, and the “% Inhibition at 1 µM” value [1] was 92%, the “% Inhibition at 1 µM” value [2] was 95% and the “% Inhibition at 1 µM” value [3] was 85%. The “% Inhibition at 1 µM” value [4] was 82%.

B2: metallopeptide 5-9 (peptide)
peptide: YVCGH[dF]RWDRF-NH2
modifications: also: oxorhenium(V) N3S1 chelate complex at Cys3
For B2, the “% Inhibition at 1 µM” value [5] was 89%, the “% Inhibition at 1 µM” value [6] was 66% and the “% Inhibition at 1 µM” value [7] was 53%. For the same binder, the “% Inhibition at 1 µM” value [8] was 53%.

B3: [Nle3, D-Phe6]-γ-MSH parent polypeptide Tyr-Val-Nle-Gly-His-D-Phe-Arg-Trp-Asp-Arg-Phe-NH2 (peptide)
peptide: YVXGHFRWDRF
modifications: Nle 3 (X in letters); D-Phe 6; C-terminal amide
notes: not complexed to Re
B3 was tested, and the “% Inhibition at 1 µM” value [1] was 100%, the “% Inhibition at 1 µM” value [5] was 99% and the “% Inhibition at 1 µM” value [6] was 99%. For the same binder, the “% Inhibition at 1 µM” value [7] was 100%, the “% Inhibition at 1 µM” value [2] was 99% and the “% Inhibition at 1 µM” value [3] was 100%. The “% Inhibition at 1 µM” value [8] was 100% and the “% Inhibition at 1 µM” value [4] was 99%.

B4: metallopeptide 5-6 (peptide)
peptide: YV[Nle]GHCRWDRF-NH2
modifications: also: oxorhenium(V) N3S1 chelate: C6 SG + backbone N of G4, H5, C6, bridge at 6 via Re(V)=O, other end not in the chain
With B4 the “% Inhibition at 1 µM” value [5] was 74%, the “% Inhibition at 1 µM” value [6] was 4% and the “% Inhibition at 1 µM” value [7] was 26%. For the same binder, the “% Inhibition at 1 µM” value [8] was 21%.

B5: metallopeptide 5-4 (peptide)
peptide: YV[Nle]GH[dF]RCDRF-NH2
modifications: also: oxorhenium(V) N3S1 chelate: C8 SG + backbone N of F6, R7, C8, bridge at 8 via Re(V)=O, other end not in the chain
In the case of B5, the “% Inhibition at 1 µM” value [5] is reported as 86%, the “% Inhibition at 1 µM” value [6] is reported as 18% and the “% Inhibition at 1 µM” value [7] is reported as 11%. For the same binder, the “% Inhibition at 1 µM” value [8] was 58%.

B6: metallopeptide 5-7 (peptide)
peptide: YV[Nle]GC[dF]RWDRF-NH2
modifications: also: oxorhenium(V) N3S1 chelate: C5 SG + backbone N of X3, G4, C5, bridge at 5 via Re(V)=O, other end not in the chain
In the case of B6, the “% Inhibition at 1 µM” value [5] is reported as 89%, the “% Inhibition at 1 µM” value [6] is reported as 69% and the “% Inhibition at 1 µM” value [7] is reported as 70%. The “% Inhibition at 1 µM” value [8] was 88%.

B7: metallopeptide 5-3 (peptide)
peptide: YV[Nle]GH[dF]RWCRF-NH2
modifications: also: oxorhenium(V) N3S1 chelate: C9 SG + backbone N of R7, W8, C9, bridge at 9 via Re(V)=O, other end not in the chain
For B7, the “% Inhibition at 1 µM” value [5] was 100%, the “% Inhibition at 1 µM” value [6] was 97% and the “% Inhibition at 1 µM” value [7] was 93%. The “% Inhibition at 1 µM” value [8] was 100%.

B8: metallopeptide 5-2 (peptide)
peptide: YV[Nle]GH[dF]RWDCF-NH2
modifications: also: oxorhenium(V) N3S1 chelate: C10 SG + backbone N of W8, D9, C10, bridge at 10 via Re(V)=O, other end not in the chain
B8 was tested, and the “% Inhibition at 1 µM” value [5] was 95%, the “% Inhibition at 1 µM” value [6] was 58% and the “% Inhibition at 1 µM” value [7] was 39%. For the same binder, the “% Inhibition at 1 µM” value [8] was 61%.

B9: metallopeptide 5-1 (peptide)
peptide: YV[Nle]GH[dF]RWDRC-NH2
modifications: also: oxorhenium(V) N3S1 chelate: C11 SG + backbone N of D9, R10, C11, bridge at 11 via Re(V)=O, other end not in the chain
With B9 the “% Inhibition at 1 µM” value [5] was 101%, the “% Inhibition at 1 µM” value [6] was 95% and the “% Inhibition at 1 µM” value [7] was 92%. The “% Inhibition at 1 µM” value [8] was 98%.

B10: metallopeptide 5-5 (peptide)
peptide: YV[Nle]GH[dF]CWDRF-NH2
modifications: also: oxorhenium(V) N3S1 chelate: C7 SG + backbone N of H5, F6, C7, bridge at 7 via Re(V)=O, other end not in the chain
For B10, the “% Inhibition at 1 µM” value [5] was 67%, the “% Inhibition at 1 µM” value [6] was 26% and the “% Inhibition at 1 µM” value [7] was 15%. The “% Inhibition at 1 µM” value [8] was 28%.

B11: metallopeptide 5-8 (peptide)
peptide: YV[Nle]CH[dF]RWDRF-NH2
modifications: also: oxorhenium(V) N3S1 chelate: C4 SG + backbone N of V2, X3, C4, bridge at 4 via Re(V)=O, other end not in the chain
In the case of B11, the “% Inhibition at 1 µM” value [5] is reported as 95%, the “% Inhibition at 1 µM” value [6] is reported as 86% and the “% Inhibition at 1 µM” value [7] is reported as 89%. The “% Inhibition at 1 µM” value [8] was 98%.

B12: metallopeptide 3-10 (peptide)
peptide: YV[Nle]CGH[dF]RWDRF-NH2
modifications: also: Re(V)=O N3S1 chelate via V2 N, Nle3 N, Cys4 N and S (ReOCl3(PPh3)2)
For B12, the “% Inhibition at 1 µM” value [1] was 86%, the “% Inhibition at 1 µM” value [2] was 84% and the “% Inhibition at 1 µM” value [3] was 78%. For the same binder, the “% Inhibition at 1 µM” value [4] was 80%.

B13: metallopeptide 3-9 (peptide)
peptide: YV[Nle]GCH[dF]RWDRF-NH2
modifications: also: oxorhenium(V) N3S1 chelate: C5 SG + backbone N of X3, G4, C5, bridge at 5 via Re(V)=O, other end not in the chain
With B13 the “% Inhibition at 1 µM” value [1] was 67%, the “% Inhibition at 1 µM” value [2] was 77% and the “% Inhibition at 1 µM” value [3] was 69%. The “% Inhibition at 1 µM” value [4] was 55%.

B14: metallopeptide 3-6 (peptide)
peptide: YV[Nle]GH[dF]CRWDRF-NH2
modifications: not fully specified (bridges); printed as Tyr-Val-Nle-Gly-His-D-Phe-Cys-Arg-Trp-Asp-Arg-Phe-NH2; also: bridge at 7 via Re(V)=O, other end not in the chain
In the case of B14, the “% Inhibition at 1 µM” value [1] is reported as 31%, the “% Inhibition at 1 µM” value [2] is reported as 52% and the “% Inhibition at 1 µM” value [3] is reported as 20%. The “% Inhibition at 1 µM” value [4] was 31%.
